Measurements: a protein production outcome set (Wang et al. 2014)

Test: label from the status in PepcDB records

## MKLKHKRDDKMRFDIKKVLELAEKDFETAWRETRALIKDKHIDNKYPRLKPVYGKPHPVMETIERLRQAYLRMGFEEMINPVIVDEMEIYKQFGPEAMAVLDRCFYLAGLPRPDVGLGNEKVEIIKNLGIDIDEEKKERLREVLHLYKKGAIDGDDLVFEIAKALNVSNEMGLKVLETAFPEFKDLKPESTTLTLRSHMTSGWFITLSSLIKKRKLPLKLFSIDRCFRREQREDRSHLMSYHSASCVVVGEDVSVDDGKVVAEGLLAQFGFTKFKFKPDEKKSKYYTPETQTEVYAYHPKLGEWIEVATFGVYSPIALAKYNIDVPVMNLGLGVERLAMIIYGYEDVRAMVYPQFYEYRLSDRDIAGMIRVDKVPILDEFYNFANELIDICIANKDKESPCSVEVKREFNFNGERRVIKVEIFENEPNKKLLGPSVLNEVYVYDGNIYGIPPTFEGVKEQYIPILKKAKEEGVSTNIRYIDGIIYKLVAKIEEALVSNVDEFKFRVPIVRSLSDINLKIDELALKQIMGENKVIDVRGPVFLNAKVEIK
  protein production: not failed

## MVSAAGELGTLRQRAWAAAANVVDPEIPVLTIEDLGVLRDVTVSGDRIEVSITPTYSGCPAMTMIALEIELALAREGIAGAKITTVLSPAWTTDWMSDAGRRKLRDYGIAPPLSGGGRRALFGEQQVACPQCGSIATTVLSEFGSTSCKALWRCLDCREPFDYFKCH
  protein production: failed

## MEKVHLYWNLRYNCWFLVSVEHLWYSQGKVPGVHGFVILPVFLTLLEQPFSTTKKDITQLRSPSSESLSSSNAVNYRAIRGSHSYFGIYGI
  protein production: failed

## MLPKIIDLFSGCGGLALGFEKAGFDIVAGIELMPEACKTISYNLSWRYGKKETHICGDITEIEASVFKNSFGDEGCIVIGGPPCQAYSMAGRGKLRSLGEDRVNIKDARGYLYQDFLRFVFELEARAVVMENVPESTNFGGKNIPEIVCTELTKKGYKAYWTILNSADYGVPQVRERVFVVAIKGDEGKEIKLPNPTHRNEVDVLTQHQKRFEGYKQCQFFVEPNGTTDELKPWVTVGDAFSDLPEVFPTADSKYKLVSLNIEYPYKTEAQNEYQELMRTWYGKEGFGVSANAFRRNTRDFPIFERMQQGDNYIAATKIAEELFYEEAKLFGYEKDSEEYISLYNKMVPQYDKDKFENKWKRLDETKPSHTLVAHLAKDTYSHIHPIEPRGITVREAARLQSFPDDFFFDCSMGDAFKQIGNAVPPLLAYGVARTVLNTFEEE
  protein production: failed

## MNNLFVYCEIEEGIVADVSLELLTKGRSLANELNCQLEAVVAGTGLKEIEKQILPYGVDKLHVFDAEGLYPYTSLPHTSILVNLFKEEQPQICLMGATVIGRDLGPRVSSALTSGLTADCTSLEIGDHEDKKEGKVYKNLLYQIRPAFGGNIVATIVNPEHRPQMATVREGVMKKEIVSPAYQGEVIRHDVKKYVADTDYVVKVIERH
  protein production: not failed

## MNVSKILVSPTVTTNVLRIFAPRLPQIGASLLVQKKWALRSKKFYRFYSEKNSGEMPPKKEADSSGKASNKSTISSIDNSQPPPPSNTNDKTKQANVAVSHAMLATREQEANKDLTSPDAQAAFYKLLLQSNYPQYVVSRFETPGIASSPECMELYMEALQRIGRHSEADAVRQNLLTASSAGAVNPSLASSSSNQSGYHGNFPSMYSPLYGSRKEPLHVVVSESTFTVVSRWVKWLLVFGILTYSFSEGFKYITENTTLLKSSEVADKSVDVAKTNVKFDDVCGCDEARAELEEIVDFLKDPTKYESLGGKLPKGVLLTGPPGTGKTLLARATAGEAGVDFFFMSGSEFDEVYVGVGAKRIRDLFAQARSRAPAIIFIDELDAIGGKRNPKDQAYAKQTLNQLLVELDGFSQTSGIIIIGATNFPEALDKALTRPGRFDKVVNVDLPDVRGRADILKHHMKKITLADNVDPTIIARGTPGLSGAELANLVNQAAVYACQKNAVSVDMSHFEWAKDKILMGAERKTMVLTDAARKATAFHEAGHAIMAKYTNGATPLYKATILPRGRALGITFQLPEMDKVDITKRECQARLDVCMGGKIAEELIYGKDNTTSGCGSDLQSATGTARAMVTQYGMSDDVGPVNLSENWESWSNKIRDIADNEVIELLKDSEERARRLLTKKNVELHRLAQGLIEYETLDAHEIEQVCKGEKLDKLKTSTNTVVEGPDSDERKDIGDDKPKIPTMLNA
  protein production: failed

## MIILKGNKIDYLFLLFGLLGLSTMIYSYLSFSLDVISRNSCTINSVISCSSVENSIYSTFLGIKLYYYGMAYFSAIIVLSLLVVKGTVKNIIGYVISLLSIIASIISVYLIYTEIFLLGHMCIVCTLAHVSIFSVLILSVIKFKV
  protein production: failed

## LEKNDLVYMQRAFELNDKVAKDIMIDRTQLVVIDITSTVKEALNVYLQERFSRLPVVADNDKDKVLGYVYNYDLTRQQQVDSSVRVDKLIRDISTTPETTPITQVLQQMIKKRTPIVVVVDEYGGTSGIITDKDIYEEL
  protein production: failed

## MEKAVHSSTTSGPAVPGETTKTGTSIIDTAASAVQSFAPVNQIHQHLCAFHFYADDMARQVEAHHFCSHVNEEMRQCLIYDGPDANARLIGLEYIVSEKLFMTLPDEEKKLWHSHEWEVKGGFLFMPGVPGAIQRKDLDKVAKTYGKVFHFWQVDLGHELPIGLPNVMMAVTRDGQLFHEMIQEAEKRFGVSVEGERDSRAYMSGPELGIHPLANGGGKGMKLELREVDIKPVESVGSVFV
  protein production: failed

## MAPRQLAAADLAVGQVVAQREIRLDAQAFAQFAALTGDAHPIHYDAGYVQRQGLRAPIAHGLLLVAISALGATPLSAQLHDAMVAMVGVEAVFMRPVYVDETVQCVYRVAQIEHVAKGRSKTTIAVSIHTTDAPPDAARQAHCVVHLTFLLKTHLQGLEHHHHHH
  protein production: failed

## AVGSGSEGFIVRLPAALLFKEGGIEVENSDGFLFVKRMAEIVNRLPKDVHVEVRGHTDTLPLPAQAPQDKLELTAKRALSVSKLLVKEGIDPKRITTVGRGDQDPLTHARTPEAQESNRRVDIYLYPKE
  protein production: not failed

## MIEFDNLTYLHGKPQGTGLLKANPEDFVVVEDLGFEPDGEGEHILVRILKNGCNTRFVADALAKFLKIHAREVSFAGQKDKHAVTEQWLCARVPGKEMPDLSAFQLEGCQVLEYARHKRKLRLGALKGNAFTLVLREVSNRDDVEQRLIDICVKGVPNYFGAQRFGIGGSNLQGAQRWAQTNTPVRDRNKRSFWLSAARSALFNQIVAERLKKADVNQVVDGDALQLAGRGSWFVATTEELAELQRRVNDKELMITAALPGSGEWGTQREALAFEQAAVAAETELQALLVREKVEAARRAMLLYPQQLSWNWWDDVTVEIRFWLPAGSFATSVVRELINTTGDYAHIAE
  protein production: not failed

## YLKDLSLLISNDKQTILYAPTWKGNSVSKVKNDVFQIISDMNYLEEKIGSDYNVLIKVHPFLYSEASKVSELKGKLIPDFIDTNQLLSTVDILITDYSSIFFDFLVTDRPILFYMWDADDYNKQRGKYINNEDLPGPVLYNVRELVEAIGNIHQVKSEFQTNYEKNKVKFTNHDDGNVTKRVVEKIFK
  protein production: failed

## MKTIHIYTNGRFEEKQSGIVREFPLVLHVNGREIATLISSPHDLRFLVAGFLRNQGFVERAEDFHMLAVCDDFGIANARIRGELPERLKPVLTSGCGTGVTFTLETPKIPPPLALPAITTDAVFRLMEELARRADNYRSHGGIHSAAVGDGEGNLLLFAEDIGRHNTLDRIAGEALFKGIDLAGTILVTSGRVSTEMAAKCARLGIALIASRTSATDMAVKMCDEAGIPLIGYVRGGKFTVYAHHERLAMAPPVGAIHELPLPASAQGRRIPGITGVILAGGQSRRMGSNKALLPYKGGRFIEAIHRQLAEIFDEVLLVTNNPEQYDFLPCRKVADIHPGMGALAGIHAGLHHAANPAAFMVACDMPYLNSDLIRHLATLADPGGVLIPESPAGLEPLHAVYGKGCLAAIETTLLSGERRIVSFFGRTNVNRVNAEQVALFDPDYATFSNINTPVDYYRLRDGERDELDAALGADRIAGLEHHHHHH
  protein production: failed

## MRTISFFNNKGGVGKTTLSTNVAHYFALQGKRVLYVDCDPQCNATQLMLTEEQTESIYLDGLNDEVAERNSLAKTVYAIFVPLREGESQIAAEITPMRSERFGVDVLPGHPALSQIEDLMSDSWQSALGRQTGPFRRIHWAGQLAHAMERDDRYDVIFFDVGPSLGPFNRTVLLGCDAFVTPTATDLFSFHAFGNLARWFDAWVTQ
  protein production: failed

## MSVEQLNQLNIEELIITLENVLKILKQYSKVSNSSITFKEFVDYWFEAYASTAVKPSTQKRYRQLLKPALRAIGNKPLNKVKPLDIQNIYIALAGTQSNCTILKLHRLLHEIFKHAQMWEYISDNPVKKVVPPTPEKKVFDVWDVETAKRFLEIIKDEPIYYPALIALHTGMRAGEILSLKWCDVNFETRVISIVKSERKNRGLKTVNLKTKTSKRAVYMNDILYKELKNLYEITKPKPDDFVCPRLPTGNLTVNYLSRKFKKLVKKHNFPLIRFHDLRHTFATLMLSLGVNTKIVAEILGHSDIKLTADTYSHVLPTMQEEAMKEFVKLWK
  protein production: failed

## MKQPTLAVIMTCHNRRNTTLACLQALYQQKNHFDVYLTDDGSTDGTAEFIKAEYPDVKIFQGDGNLFWVGGMHLAFGEAIKNQYDYYLWLNDDTFLEADALEKLLQVHENLAVEGYGQSIVVGSTQDPITKQATYGGAVKSKKWYSNKFEFLEPTSDVQKCDAMYGNCVLIPHSVTLKVGNIDTAFIHSLGDLDYALRARNLGCHVWVAPGYIGTCNKNSVRNSWVDTKLPVLERLRKILQIKGFPLKPWTTFCSRHSGPFWIFYWFLPYIRAIIGYKNLATSPTFSEDPKETKPEV
  protein production: failed

## MSTPSPALFFNTVNAYQRSAAIKAAVELNVFTAISQGIESSQSLAQKCQTSERGMRMLCDYLVIIGFMTKQAEGYRLTSDSAMFLDRQSKFYVGDAIEFLLSPMITNGFNDLTAAVLKGGTAISSEGTLSPEHPVWVQFAKAMSPMMANPAQLIAQLVNENKIEPLKVLDISASHGLFGIAVAQHNPNAEIFGVDWASVLEVAKENARIQGVASRYHTIAGSAFEVDYGNDYDLVLLPNFLHHFDVATCEQLLRKIKTALAVEGKVIVFDFIPNSDRITPPDAAAFSLVMLATTPNGDAYTFAEYESMFSNAGFSHSQLHSLPTTQQQVIVAYK
  protein production: not failed

## MKEPPMTKTVFHLGVTEADLNGATLAIIPGDPARVQKIAELMDNPVFLASHREYTVYRAELDGQSVVVCSTGIGGPSTSIAVEELAQLGVRTFLRVGTTGAIQPHVNVGDMIVTTGSVRLDGASLHFAPMEFPAVPDFDVATAMKAAAQESGATVHMGVTASSDTFYPGQERYDTFTGRVVRRFQGSMKEWQDMGVLNFEMESATLLTMCASSGLKAGCVAGVIINRTQKEIPDHATLKETEARSIKVVVEAARKMLK
  protein production: not failed

## MKEELKREYERIKDRISPEEFEELIEKKKEELGDIGFMDDLTIASTVVDDILKEKNTMLSEKPEHRMDTISKLEEGAETPVTGRVMKISSPRTFTTRKGREGKLANVIIADDTGELRAVFWTENIKLLKKFREGDVIRIKDVNIRGGFGGRKEAHLMPRSTVEVLDPEDYPEFPEYREEITPIGDLVEDDEVNVIARITGVSRVRTFERDGREGRFISLDIMDATGSTTYTLWNNDVNLVEELGLKEGDAVKILWAQPRRRDDKVTLTHTSLTRVVPGEYDVPEFREELVKIGDLHEMRNVTVMGLVTKVNDPVEFERNDGTTGSVKSIEIADDTGSARVTLWDEDTRIKINKGDIIRISGANVEFDDFNQSYRINTNFNTRITLNPESDGALLKVLEEYREQMRPMKISEILEMEDEGEEVDVVGRIFSLSDPREFEREDGTGIVRSMELADETGKIRISLWDEKAEKPMNIGDAVRIENARIRLGLYSVELSAGRTTRIVNPLPEDMEDLPSFEELEEMLYQTKKIADLEEDDRNIRIIARVVDLFEPREFQRGDGTPGLVRTAEFADDTGSIRASLWDDAAEKPLSIGDPVKIENPRVVFRDDMGGGRLETQHRKQFKD
  protein production: failed
